Assays:
[1] = target: chimeric antibody hJAR5 (mouse variable, human constant); test: BLI
mAb JAR5 (mouse) (mouse) = test: BLI
Chain of mAb JAR5 (mouse) (mouse) (heavy, as listed by the source, chain 1 of 2, other chains not shown): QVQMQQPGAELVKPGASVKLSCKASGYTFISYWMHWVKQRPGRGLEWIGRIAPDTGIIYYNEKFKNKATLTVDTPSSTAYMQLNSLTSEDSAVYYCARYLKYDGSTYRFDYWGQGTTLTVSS

Chain of chimeric antibody hJAR5 (mouse variable, human constant) (heavy, as listed by the source, chain 1 of 2, other chains not shown): as above

| Substance | Kd [1] [nM] | koff [1] [s⁻¹] | kon [1] [M⁻¹ s⁻¹] | Kd (mAb JAR5 (mouse) (mouse)) [nM] | koff (mAb JAR5 (mouse) (mouse)) [s⁻¹] | kon (mAb JAR5 (mouse) (mouse)) [M⁻¹ s⁻¹] |
| --- | --- | --- | --- | --- | --- | --- |
| fHbp CC3 (natural protein) | 1.2 | 0.00241 | 2.01e+06 | – | – | – |
| fHbp CC2 (natural protein) | 0.425 | 0.000266 | 625000 | – | – | – |
| fHbp CC1 (natural protein) | 3.86 | 0.00268 | 693000 | – | – | – |
| fHbp m000006 (from UniProt E6MV22 20-274) (natural protein) | 0.922 | 0.000499 | 541000 | < 0.001 | < 1e-07 | 642000 |
| fHbp CC8 (natural protein) | 3.58 | 0.002 | 558000 | – | – | – |
| fHbp CC5 (natural protein) | 6.49 | 0.00446 | 687000 | – | – | – |
| fHbp CC9 (natural protein) | 7.66 | 0.00118 | 154000 | – | – | – |
| fHbp CC4 (natural protein) | 6.92 | 0.00561 | 811000 | – | – | – |

From paper PMC12319226 (Frontiers in Bioinformatics, 2025)
